In publication PMC6854500:

Columns and labels:
[1] = target: PEDV CV777 S soluble ectodomain (residues 1 to 1319) with C-terminal T4 fibritin trimerization motif (porcine epidemic diarrhea virus, strain CV777 | bacteriophage T4) (UniProt Q91AV1); experiment: SEC; Superose6 10/300 column, 2 mM Tris (pH 8.0), 200 mM NaCl, 0.02% NaN3; single symmetrical peak
[2] = target: PEDV CV777 S soluble ectodomain (residues 1 to 1319) with C-terminal T4 fibritin trimerization motif (porcine epidemic diarrhea virus, strain CV777 | bacteriophage T4) (UniProt Q91AV1); experiment: cryo-EM structure; PEDV S CV777 at 0.4 mg/ml in 2 mM Tris (pH 8.0), 200 mM NaCl, 0.02% NaN3, 0.01% Amphipol A8-35; Titan Krios 300 kV; 3.3 Å without symmetry, 3.1 Å with C3; a 10-Å reconstruction with 2 mM 3'-sialyllactose was indistinguishable
[3] = target: dissociated PEDV CV777 S1 subunit (S1 ring) (porcine epidemic diarrhea virus, strain CV777) (UniProt Q91AV1); experiment: cryo-EM structure; roughly 10% of the particles of the PEDV CV777 S data set, 2D classes and a 9.4-Å reconstruction without imposed symmetry (C1)

“PEDV CV777 S soluble ectodomain (residues 1 to 1319) with C-terminal T4 fibritin trimerization motif (from UniProt Q91AV1 26-1319) (domain or fragment)” was tested, and the stoichiometry N [1] was 3 and the stoichiometry N [2] was 3.
Substance “dissociated PEDV CV777 S1 subunit (S1 ring) (from UniProt Q91AV1 26-1383) (domain or fragment)” has a stoichiometry N [3] of 3.
